The source of these data is paper PMC3297582, “Spo0A∼P Imposes a Temporal Gate for the Bimodal Expression of Competence in Bacillus subtilis” (PLoS Genetics, 2012).

This data set deals with the molecule itself. Description: SEC; Superdex 200 column; Spo0A after phosphorylation with phosphoramidate; buffer not stated.

B1: Spo0A∼P (phosphorylated form of the response-regulator protein Spo0A) (natural protein, Bacillus subtilis, UniProt P06534 1-267, looked up)
chain: MEKIKVCVADDNRELVSLLSEYIEGQEDMEVIGVAYNGQECLSLFKEKDPDVLVLDIIMPHLDGLAVLERLRESDLKKQPNVIMLTAFGQEDVTKKAVDLGASYFILKPFDMENLVGHIRQVSGNASSVTHRAPSSQSSIIRSSQPEPKKKNLDASITSIIHEIGVPAHIKGYLYLREAISMVYNDIELLGSITKVLYPDIAKKFNTTASRVERAIRHAIEVAWSRGNIDSISSLFGYTVSMTKAKPTNSEFIAMVADKLRLEHKAS
modifications: phosphorylated with phosphoramidate (residue not given; fraction phosphorylated uncertain)
notes: Spo0A, response regulator of Bacillus subtilis, full length, phosphorylated in vitro; also called OA∼P; source: purified following a published protocol [41] as modified [42]; phosphorylated with non-radioactive phosphoramidate
Turning to B1, the “stoichiometry N” value came to 2.
